Data from article PMC10960667 (Molecular cell, 2024).

Molecular target: T1, recombinant full-length IκBζ wild type with 8×His-MBP tag (human, UniProt Q9BYH8-1 1-718)
T1 sequence (looked up): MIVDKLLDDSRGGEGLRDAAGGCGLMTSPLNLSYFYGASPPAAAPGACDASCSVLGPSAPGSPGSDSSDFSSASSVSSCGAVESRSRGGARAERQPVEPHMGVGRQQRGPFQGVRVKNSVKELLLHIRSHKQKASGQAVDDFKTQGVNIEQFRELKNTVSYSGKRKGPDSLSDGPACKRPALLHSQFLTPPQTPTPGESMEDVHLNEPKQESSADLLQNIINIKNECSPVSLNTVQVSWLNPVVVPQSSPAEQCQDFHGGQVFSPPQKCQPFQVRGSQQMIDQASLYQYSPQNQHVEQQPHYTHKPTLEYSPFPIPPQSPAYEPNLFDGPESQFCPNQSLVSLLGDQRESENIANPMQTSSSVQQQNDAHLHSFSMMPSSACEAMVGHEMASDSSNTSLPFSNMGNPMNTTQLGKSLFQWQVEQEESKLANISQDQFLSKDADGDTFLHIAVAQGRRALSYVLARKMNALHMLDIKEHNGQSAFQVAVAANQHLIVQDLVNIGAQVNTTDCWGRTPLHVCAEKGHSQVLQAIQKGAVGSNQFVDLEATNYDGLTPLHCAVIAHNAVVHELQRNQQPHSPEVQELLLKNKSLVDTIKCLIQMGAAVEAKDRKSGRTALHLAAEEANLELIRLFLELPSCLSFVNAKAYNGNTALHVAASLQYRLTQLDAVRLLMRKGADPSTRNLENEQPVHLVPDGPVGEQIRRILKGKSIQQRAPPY
Assay: pull-down

B1: recombinant full-length OCT6 with N-terminal 6×His-ECFP tag (natural protein, UniProt Q03052 1-451, looked up)
chain: MATTAQYLPRGPGGGAGGTGPLMHPDAAAAAAAAAAAERLHAGAAYREVQKLMHHEWLGAGAGHPVGLAHPQWLPTGGGGGGDWAGGPHLEHGKAGGGGTGRADDGGGGGGFHARLVHQGAAHAGAAWAQGSTAHHLGPAMSPSPGASGGHQPQPLGLYAQAAYPGGGGGGLAGMLAAGGGGAGPGLHHALHEDGHEAQLEPSPPPHLGAHGHAHGHAHAGGLHAAAAHLHPGAGGGGSSVGEHSDEDAPSSDDLEQFAKQFKQRRIKLGFTQADVGLALGTLYGNVFSQTTICRFEALQLSFKNMCKLKPLLNKWLEETDSSSGSPTNLDKIAAQGRKRKKRTSIEVGVKGALESHFLKCPKPSAHEITGLADSLQLEKEVVRVWFCNRRQKEKRMTPAAGAGHPPMDDVYAPGELGPGGGGASPPSAPPPPPPAALHHHHHHTLPGSVQ
- binding result: binds
